From patent US20240009240A1 (published 2024)

How the values were obtained:
[1] = biological target: T1, EGFR L858R peptide on HLA-A*11:01 (human); test: killing
T1 peptide: KITDFGRAK

[2] = biological target: T1, EGFR L858R peptide on HLA-A*11:01; test: multimer staining
[3] = biological target: … (SEQ ID NO:71) presented on HLA-A*1101 on HLA-A*1101-transduced 293 target cells (human); test: cell-based or functional assay

B1: EGFRA11 TCRA11-6 (TCR, V domains shown)
Valpha: QKITQTQPGMFVQEKEAVTLDCTYDTSDQSYGLFWYKQPSSGEMIFLIYQGSYDEQNATEGRYSLNFQKARKSANLVISASQLGDSAMYFCAMNTGFQKLVFGTGTRLLVSP
Vbeta: DAGVIQSPRHEVTEMGQEVTLRCKPISGHDYLFWYRQTMMRGLELLIYFNNNVPIDDSGMPEDRFSAKMPNASFSTLKIQPSEPRDSAVYFCASRNGPEAFFGQGTRLTVV
B1: recognises [1].

B2: EGFRA11 TCRA11-7-8 (TCR, V domains shown)
Valpha: RKEVEQDPGPFNVPEGATVAFNCTYSNSASQSFFWYRQDCRKEPKLLMSVYSSGNEDGRFTAQLNRASQYISLLIRDSKLSDSATYLCVVIGGGADGLTFGKGTHLIIQP
Vbeta: GVIQSPRHEVTEMGQEVTLRCKPISGHDYLFWYRQTMMRGLELLIYFNNNVPIDDSGMPEDRFSAKMPNASFSTLKIQPSEPRDSAVYFCASRNGPEAFFGQGTRLTVV
B2: recognises [2].

B3: EGFRA11 TCRA11-7-12 (TCR, V domains shown)
Valpha: RKEVEQDPGPFNVPEGATVAFNCTYSNSASQSFFWYRQDCRKEPKLLMSVYSSGNEDGRFTAQLNRASQYISLLIRDSKLSDSATYLCVVIGGGADGLTFGKGTHLIIQP
Vbeta: GVTQSPTHLIKTRGQQVTLRCSSQSGHNTVSWYQQALGQGPQFIFQYYREEENGRGNFPPRFSGLQFPNYSSELNVNALELDDSALYLCASSVGGDTEAFFGQGTRLTVV
B3: recognises [2].

B4: EGFRA11 TCRA11-7-18 (TCR, V domains shown)
Valpha: RKEVEQDPGPFNVPEGATVAFNCTYSNSASQSFFWYRQDCRKEPKLLMSVYSSGNEDGRFTAQLNRASQYISLLIRDSKLSDSATYLCVVIGGGADGLTFGKGTHLIIQP
Vbeta: EPEVTQTPSHQVTQMGQEVILRCVPISNHLYFYWYRQILGQKVEFLVSFYNNEISEKSEIFDDQFSVERPDGSNFTLKIRSTKLEDSAMYFCASSGQGDLLYGYTFGSGTRLTVV
B4: recognises [2].

B5: #1. EGFRA11 TCRA11-6; TRAV14DV4*02 J8*01/TRBV12-4*01 C1 J1-1*01 (TCR)
TCR alpha: QKITQTQPGMFVQEKEAVTLDCTYDTSDQSYGLFWYKQPSSGEMIFLIYQGSYDEQNATEGRYSLNFQKARKSANLVISASQLGDSAMYFCAMNTGFQKLVFGTGTRLLVSPNIQNPDPAVYQLRDSKSSDKSVCLFTDFDSQTNVSQSKDSDVYITDNAVLDMRSMDFKSNSAVAWSNKSDFACANAFNNSIIPEDTFFPSPESSCDVKLVEKSFETDTNLNFQNLSVIGFRILLLKVAGFNLLMTLRLWSSRAKRSGSGATNFSLLKQAGDVEENPGP
TCR beta: GVIQSPRHEVTEMGQEVTLRCKPISGHDYLFWYRQTMMRGLELLIYFNNNVPIDDSGMPEDRFSAKMPNASFSTLKIQPSEPRDSAVYFCASRNGPEAFFGQGTRLTVVEDLNKVFPPEVAVFEPSEAEISHTQKATLVCLATGFFPDHVELSWWVNGKEVHSGVCTDPQPLKEQPALNDSRYCLSSRLRVSATFWQNPRNHFRCQVQFYGLSENDEWTQDRAKPVTQIVSAEAWGRADCGFTSVSYQQGVLSATILYEILLGKATLYAVLVSALVLMAMVKRKDF
B5 showed a specific lysis of 293A11 cells pulsed with different amounts of EGFR-A11 peptide, T cells expressing TCR6 construct at a 20:1 ratio (Cr51 release) [3] of 20 ng/mL.
